# Experimental data as given in the RNAGym collection of RNA variant scans (doi:10.1073/pnas.2313332121).
# B1: TPR t1 (parent)
# chain: GACCAAUCUGCCCUCAGAGCUCGAGAACAUCUUCGGAUGCAGAGGAGGCAGGCUUCGGUGGCGCGAUAGCGCCAACGUCCUCAACCUCCAAUGCAUCCCACCACAUGAUGAUGCCUGAAGAGCCUUGGUUUUUUG
# Variants of: B1
# Test: polymerase ribozyme fitness, log enrichment relative to wild type (log ratio); higher = more active; in vitro selection for triplet polymerase activity
# Procedure, shortened: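 Input and output libraries were sequenced on Illumina after a single in vitro selection round, run in triplicate on PCR-built, transcribed mutant libraries of each subunit of a heterodimeric triplet polymerase ribozyme. Selection annealed libraries to a biotinylated primer, the partner subunit and triplets, incubated them frozen at −7 °C, then gel-excised extended constructs for streptavidin-bead capture and RT-PCR. Genotypes with ≥10 input reads and ≥1 read per output were kept. Fitness is the logarithm, taken in base 2, of genotype enrichment divided by wild-type enrichment, using inverse-variance-weighted replicate averages.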
row,Variant,polymerase ribozyme fitness (log ratio)
1,C13U C40U G48U G110A G117U A118U,-4.23
2,C13U C49G A50U G58A A95G C114G,-5.63
3,C13U C49U U55G U92A,-4.11
4,C13U C53A C72A A103U G127U,-5.25
5,C13U C53A U92G C101U,-1.94
6,C13U C56G G58C,-0.174
7,C13U C62U,-0.0202
8,C13U C62U C85A U106A,-1.41
9,C13U C64U A74U C82G,-1.47
10,C13U C64U U92C U96C,-1.14
11,C13U C70A A121G,0.554
12,C13U C70G,-1.68
13,C13U C70G A83C U112C,-1.45
14,C13U C72U A74C,0.529
15,C13U C72U U129G,-0.856
16,C13U C73G C82A U87C C101A G110C G127A,-6.6
17,C13U C76G C85U C104G,-7.55
18,C13U C79A C115A G127C,-1.14
19,C13U C80U A84C C124U,1.02
20,C13U C82A C97A,-4.74
21,C13U C82G C99U,-3.96

row,Variant,polymerase ribozyme fitness (log ratio)
1,C13U C82U,-0.268
2,C13U C85U,-1.48
3,C13U C88A A90C,-1.03
4,C13U C88U,0.907
5,C13U C89A,-1.08
6,C13U C98U,-1.1
7,C13U C101A,-0.869
8,C13U C101U,-0.0534
9,C13U C115A,-0.378
10,C13U C123A,1.1
11,C13U G17A C123A,0.664
12,C13U G17U C31U U106A C115U,-1.65
13,C13U G17U C49U A50C,-2.06
14,C13U G17U G63U U78C,-3.99
15,C13U G19A A41U G44U G69U,-2.81
16,C13U G23A,-5.12
17,C13U G25C C62G C82A C86A C102U U109C,-7.42
18,C13U G35A G45A U87G,-4.53
19,C13U G35C G48C C73A A74G C104U,-4.6
20,C13U G39A C70A C104U,-1.43
21,C13U G39U G44U,-1.24

row,Variant,polymerase ribozyme fitness (log ratio)
1,C13U G42U C56U C73U C114G C123A,-2.2
2,C13U G42U G48A U129A,-2.82
3,C13U G42U G61A A90U A95U,-1.48
4,C13U G44U A50G C53U C56U G93U C124G,-1.13
5,C13U G44U G58A U59A G61A C62U,-2.38
6,C13U G45A,-0.438
7,C13U G45A G71C,-0.496
8,C13U G45U G117U,-2.03
9,C13U G47U G135U,-2.07
10,C13U G48U,-1.37
11,C13U G51A U55A C79G C89A,-5.95
12,C13U G51C C85A C124G,-3.2
13,C13U G51U C79G G127A,-2.92
14,C13U G51U G52U U78C C82A,-2.57
15,C13U G52C C62U C94G A100U G113A,-3
16,C13U G52C U59C C104U G120U G127A,-1.32
17,C13U G58C A84G,-0.641
18,C13U G60A A100U C101U C104U A121C,1.93
19,C13U G61C A100U A111G G113A,-5.12
20,C13U G69C,-1.26
21,C13U G69C U116C G120C,-0.88

row,Variant,polymerase ribozyme fitness (log ratio)
1,C13U G69U C94U,0.248
2,C13U G71C,-0.732
3,C13U G71U U78C,0.0986
4,C13U G71U U78G U133G,-0.454
5,C13U G113A,0.0113
6,C13U G128C,-1.81
7,C13U U14C G48U,-3.25
8,C13U U14G A16U G93U G120C,-3.43
9,C13U U14G C80U C115A,-3.73
10,C13U U30C A46U C73U,-5.98
11,C13U U30G U55G A111U,-4.31
12,C13U U38G G63U C79G C88U C99G G110U G113U,-6.9
13,C13U U81A,-0.11
14,C13U U92A,-2.13
15,C13U U131A,-0.274
16,C13U U132C,0.0693
17,U14A A24G A119G,-4.72
18,U14A A50G,-2.52
19,U14A A111G U130A,-3.57
20,U14A C22U A37U C79U A83C A84C,-5.43
21,U14A C40U C64U A91U,-4.67
